The values below come from publication PMC6555819, “Comprehensive study of nuclear receptor DNA binding provides a revised framework for understanding receptor specificity”.

The target of one data set is RARg:RXRa (Homo sapiens, UniProt P13631;P19793 full;full). Nature of the data set: no ligand; PBM; 270 nM : 90 nM RXRa; PBS pH 7.4, 2% milk, 0.02% Triton X-100, 1 mM DTT, BSA, 0.4 mg/ml salmon testes DNA. The settings on record: tags: His kept;His cleaved; copies: 1;1; label: surface-attached array probe. Put shortly:
(§1)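 Ligand-free nuclear receptor dimers were applied to custom Agilent 4×180K protein-binding microarrays whose double-stranded probes carried direct-repeat seeds, single-nucleotide variants, half-site ablations and random human genomic background sequences in 34-nt variable regions. Incubation lasted 1 h. Binding z-scores were computed against the random background probes from regression-normalized fluorescence.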

In the next data set the target is LXRb:RXRa (Homo sapiens, UniProt P55055;P19793 full;full). The description is as above. As to conditions: tags: His kept;His cleaved; copies: 1;1; label: surface-attached array probe. Put shortly:
as §1

Another data set addresses RXRa (Homo sapiens, UniProt P19793). Nature of the data set: no ligand; PBM; 180 nM; PBS pH 7.4, 2% milk, 0.02% Triton X-100, 1 mM DTT, BSA, 0.4 mg/ml salmon testes DNA. As to conditions: tags: His cleaved; chain copies: 2; label: surface-attached array probe.
In a further data set the target is VDR:RXRa (Homo sapiens, UniProt P11473;P19793 full;full). Nature of the data set: no ligand; PBM; 270 nM : 90 nM RXRa; PBS pH 7.4, 2% milk, 0.02% Triton X-100, 1 mM DTT, BSA, 0.4 mg/ml salmon testes DNA. As to conditions: tags: His kept;His cleaved; copies: 1;1; label: surface-attached array probe. The essentials:
as §1

The next data set concerns the target RARb:RXRa (Homo sapiens, UniProt P10826;P19793 full;full). The description is as above. As to conditions: tags: His kept;His cleaved; copies: 1;1; label: surface-attached array probe. The essentials: as §1
The target of a further data set is PPARa:RXRa (Homo sapiens, UniProt Q07869;P19793 full;full). Described as above. As to conditions: tags: GST kept;His cleaved; copies: 1;1; label: surface-attached array probe. Put shortly: as §1
Sequence of PPARa:RXRa (Q07869 whole entry, chain 1 of 2): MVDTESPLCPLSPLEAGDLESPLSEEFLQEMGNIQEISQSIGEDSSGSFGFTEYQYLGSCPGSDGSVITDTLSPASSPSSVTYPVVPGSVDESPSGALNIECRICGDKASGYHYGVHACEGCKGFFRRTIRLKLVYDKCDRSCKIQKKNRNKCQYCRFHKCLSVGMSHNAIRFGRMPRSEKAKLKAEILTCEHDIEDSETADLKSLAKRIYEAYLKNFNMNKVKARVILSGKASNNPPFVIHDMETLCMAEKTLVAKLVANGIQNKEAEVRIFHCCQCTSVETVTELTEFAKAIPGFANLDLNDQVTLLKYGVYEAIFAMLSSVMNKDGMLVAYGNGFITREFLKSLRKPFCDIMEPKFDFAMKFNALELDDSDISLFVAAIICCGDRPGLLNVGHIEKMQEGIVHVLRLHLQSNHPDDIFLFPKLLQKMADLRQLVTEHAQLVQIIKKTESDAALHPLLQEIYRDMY
Sequence of PPARa:RXRa (P19793 whole entry, chain 2 of 2): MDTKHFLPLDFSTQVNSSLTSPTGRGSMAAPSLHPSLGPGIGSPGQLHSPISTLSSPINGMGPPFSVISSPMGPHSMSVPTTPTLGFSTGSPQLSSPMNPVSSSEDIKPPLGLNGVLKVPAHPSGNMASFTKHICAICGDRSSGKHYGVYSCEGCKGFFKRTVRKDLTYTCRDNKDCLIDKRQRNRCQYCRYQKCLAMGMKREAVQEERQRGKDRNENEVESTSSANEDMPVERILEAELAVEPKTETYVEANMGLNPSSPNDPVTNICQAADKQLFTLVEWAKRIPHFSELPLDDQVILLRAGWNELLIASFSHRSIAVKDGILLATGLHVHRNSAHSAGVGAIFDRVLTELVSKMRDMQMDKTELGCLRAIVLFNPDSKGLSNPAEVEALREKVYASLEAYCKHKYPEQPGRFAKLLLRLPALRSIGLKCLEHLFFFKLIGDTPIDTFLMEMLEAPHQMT

Sequence of VDR:RXRa (P11473 whole entry, chain 1 of 2): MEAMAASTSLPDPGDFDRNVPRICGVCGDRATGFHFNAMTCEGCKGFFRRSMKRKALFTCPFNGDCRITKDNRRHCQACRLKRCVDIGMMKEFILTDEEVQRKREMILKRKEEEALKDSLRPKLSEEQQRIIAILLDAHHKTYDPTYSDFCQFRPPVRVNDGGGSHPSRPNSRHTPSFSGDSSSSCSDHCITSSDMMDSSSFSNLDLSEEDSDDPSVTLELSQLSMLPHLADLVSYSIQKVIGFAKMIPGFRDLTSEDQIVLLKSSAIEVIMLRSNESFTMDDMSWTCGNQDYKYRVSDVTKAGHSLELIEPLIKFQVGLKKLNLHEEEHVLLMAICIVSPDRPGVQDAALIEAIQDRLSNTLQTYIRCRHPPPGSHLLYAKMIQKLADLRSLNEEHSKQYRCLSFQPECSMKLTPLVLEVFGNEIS
Sequence of VDR:RXRa (P19793 whole entry, chain 2 of 2): as the sequence (P19793 whole entry, chain 2 of 2) above
Sequence of RXRa (P19793 whole entry): as the sequence (P19793 whole entry, chain 2 of 2) above
Sequence of RARb:RXRa (P10826 whole entry, chain 1 of 2): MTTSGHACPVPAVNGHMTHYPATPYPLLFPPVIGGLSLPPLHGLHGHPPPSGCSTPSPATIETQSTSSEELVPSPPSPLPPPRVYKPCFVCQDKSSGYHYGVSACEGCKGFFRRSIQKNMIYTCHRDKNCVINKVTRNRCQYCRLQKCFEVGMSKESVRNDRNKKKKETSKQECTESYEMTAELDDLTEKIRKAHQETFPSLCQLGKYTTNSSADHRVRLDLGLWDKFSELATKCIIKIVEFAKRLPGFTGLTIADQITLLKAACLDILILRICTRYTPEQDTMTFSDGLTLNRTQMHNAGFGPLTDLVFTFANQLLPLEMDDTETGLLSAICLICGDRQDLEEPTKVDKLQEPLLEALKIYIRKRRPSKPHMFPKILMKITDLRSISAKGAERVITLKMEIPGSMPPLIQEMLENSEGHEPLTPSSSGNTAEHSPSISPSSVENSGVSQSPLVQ
Sequence of RARb:RXRa (P19793 whole entry, chain 2 of 2): as the sequence (P19793 whole entry, chain 2 of 2) above
Sequence of LXRb:RXRa (P55055 whole entry, chain 1 of 2): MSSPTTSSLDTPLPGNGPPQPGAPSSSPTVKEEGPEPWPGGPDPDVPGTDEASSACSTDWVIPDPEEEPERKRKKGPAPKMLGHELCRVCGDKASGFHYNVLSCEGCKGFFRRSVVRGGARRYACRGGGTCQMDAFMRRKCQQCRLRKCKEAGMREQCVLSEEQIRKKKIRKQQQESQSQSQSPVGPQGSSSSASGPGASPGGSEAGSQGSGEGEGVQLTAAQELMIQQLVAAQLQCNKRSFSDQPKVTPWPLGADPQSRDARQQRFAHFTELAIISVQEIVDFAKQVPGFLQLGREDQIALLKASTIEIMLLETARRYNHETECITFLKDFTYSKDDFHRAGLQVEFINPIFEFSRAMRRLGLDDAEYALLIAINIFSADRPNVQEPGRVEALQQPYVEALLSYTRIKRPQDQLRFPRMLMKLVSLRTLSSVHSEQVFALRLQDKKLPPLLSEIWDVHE
Sequence of LXRb:RXRa (P19793 whole entry, chain 2 of 2): as the sequence (P19793 whole entry, chain 2 of 2) above
Sequence of RARg:RXRa (P13631 whole entry, chain 1 of 2): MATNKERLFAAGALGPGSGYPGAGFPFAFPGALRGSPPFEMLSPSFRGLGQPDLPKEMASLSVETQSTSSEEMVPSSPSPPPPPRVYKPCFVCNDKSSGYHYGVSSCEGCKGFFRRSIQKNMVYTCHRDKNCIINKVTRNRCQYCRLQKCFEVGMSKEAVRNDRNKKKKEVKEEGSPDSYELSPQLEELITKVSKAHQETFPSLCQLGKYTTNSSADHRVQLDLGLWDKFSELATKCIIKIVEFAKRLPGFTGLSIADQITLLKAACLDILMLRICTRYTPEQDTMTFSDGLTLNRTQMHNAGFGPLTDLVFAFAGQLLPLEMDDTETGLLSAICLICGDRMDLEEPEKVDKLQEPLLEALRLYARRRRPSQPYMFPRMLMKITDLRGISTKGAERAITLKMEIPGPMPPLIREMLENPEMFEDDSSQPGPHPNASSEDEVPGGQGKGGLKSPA
Sequence of RARg:RXRa (P19793 whole entry, chain 2 of 2): as the sequence (P19793 whole entry, chain 2 of 2) above

B1: NRC3_random_hg19_225_o1 (dsDNA)
DNA 1: GCTGGATGAAGTGGAAGAACAAGGCTATTCTTTACTGCGATTGACAGCGTAGAATGAAGG
DNA 2: CCTTCATTCTACGCTGTCAATCGCAGTAAAGAATAGCCTTGTTCTTCCACTTCATCCAGC
Turning to B1, the values for the binding signal in the data set with RARg:RXRa, with LXRb:RXRa and with RXRa were 0.01 PBM z-score against 500 random probes, -0.34 PBM z-score against 500 random probes and -0.39 PBM z-score against 500 random probes, respectively.

B2: NRC3_wobSeed45_DR1_A14T_o1 (dsDNA)
DNA 1: GCTGTCAAAGTTCTAAGGTAACGTAAGTATCCACACGCGATTGACAGCGTAGAATGAAGG
DNA 2: CCTTCATTCTACGCTGTCAATCGCGTGTGGATACTTACGTTACCTTAGAACTTTGACAGC
Take B2: the figures for the binding signal with RARg:RXRa, with LXRb:RXRa and with RXRa were 0.41 PBM z-score against 500 random probes, 0.4 PBM z-score against 500 random probes and 0.38 PBM z-score against 500 random probes, respectively.

B3: NRC3_wobSeed10_DR0_G17T_o1 (dsDNA)
DNA 1: GCATCGAAAGGTCGAGTTGAGTATAGAGAAAGGGAAGCGATTGACAGCGTAGAATGAAGG
DNA 2: CCTTCATTCTACGCTGTCAATCGCTTCCCTTTCTCTATACTCAACTCGACCTTTCGATGC
Regarding B3, the binding signal in the data set with LXRb:RXRa was 3.11 PBM z-score against 500 random probes; with RXRa it was 4.1 PBM z-score against 500 random probes.

B4: NRC3_wobSeed130_DR5_T12G_o1 (dsDNA)
DNA 1: GCCTCGAAAGGGCGTGCTCAGGTGAGTATACCAAACGCGATTGACAGCGTAGAATGAAGG
DNA 2: CCTTCATTCTACGCTGTCAATCGCGTTTGGTATACTCACCTGAGCACGCCCTTTCGAGGC
With B4, the results for the binding signal with LXRb:RXRa and with RXRa were 0.29 PBM z-score against 500 random probes and 0.33 PBM z-score against 500 random probes, respectively.

B5: NRC3_wobSeed27_DR1_G24A_o1 (dsDNA)
DNA 1: GCACTCGGAGGACAAAGGTCAGAACTACGCCAGTGAGCGATTGACAGCGTAGAATGAAGG
DNA 2: CCTTCATTCTACGCTGTCAATCGCTCACTGGCGTAGTTCTGACCTTTGTCCTCCGAGTGC
As to B5, the binding signal was 3.2 PBM z-score against 500 random probes in the data set with VDR:RXRa and 3.26 PBM z-score against 500 random probes with LXRb:RXRa.

B6: NRC3_wobSeed21_DR0_C21T_o1 (dsDNA)
DNA 1: GCCGTCAAAGTTCAAGGTAATGTAACAGAAAGCAGCGCGATTGACAGCGTAGAATGAAGG
DNA 2: CCTTCATTCTACGCTGTCAATCGCGCTGCTTTCTGTTACATTACCTTGAACTTTGACGGC
Turning to B6, the binding signal with VDR:RXRa was 3.72 PBM z-score against 500 random probes; in the data set with LXRb:RXRa, 3.22 PBM z-score against 500 random probes.

B7: NRC3_wobSeed37_DR1_T23C_o1 (dsDNA)
DNA 1: GCCGTCCAAGGTCAAAGGTCAGCGAAGAGATGACGGGCGATTGACAGCGTAGAATGAAGG
DNA 2: CCTTCATTCTACGCTGTCAATCGCCCGTCATCTCTTCGCTGACCTTTGACCTTGGACGGC
On to B7, for which the binding signal is 7.14 PBM z-score against 500 random probes with LXRb:RXRa and 6.23 PBM z-score against 500 random probes with RARb:RXRa.

B8: NRC3_wobSeed100_DR4_T22G_o1 (dsDNA)
DNA 1: GCCCTACTGGGCCACGAAAGGGCATTGATTCAGTGAGCGATTGACAGCGTAGAATGAAGG
DNA 2: CCTTCATTCTACGCTGTCAATCGCTCACTGAATCAATGCCCTTTCGTGGCCCAGTAGGGC
In the case of B8, the binding signal with VDR:RXRa is 0.11 PBM z-score against 500 random probes; with LXRb:RXRa, 0.15 PBM z-score against 500 random probes.

B9: NRC3_random_hg19_165_o1 (dsDNA)
DNA 1: GCTGAGTCCCTGCACTAGTCGGTTTGAGCTGCTTGTGCGATTGACAGCGTAGAATGAAGG
DNA 2: CCTTCATTCTACGCTGTCAATCGCACAAGCAGCTCAAACCGACTAGTGCAGGGACTCAGC
As to B9, the binding signal with LXRb:RXRa is -0.66 PBM z-score against 500 random probes; with RXRa it was -1.2 PBM z-score against 500 random probes.

B10: NRC3_wobSeed98_DR4_C23A_o1 (dsDNA)
DNA 1: GCACTAGTTGGTCAGCTGAGGTAACACACAATTCGGGCGATTGACAGCGTAGAATGAAGG
DNA 2: CCTTCATTCTACGCTGTCAATCGCCCGAATTGTGTGTTACCTCAGCTGACCAACTAGTGC
Regarding B10, the binding signal was 0.34 PBM z-score against 500 random probes with LXRb:RXRa and 0.48 PBM z-score against 500 random probes with RXRa.

B11: NRC3_wobSeed29_DR1_T22A_o1 (dsDNA)
DNA 1: GCGCTTACGGGTCAAAGGTTAAAGCATGAATAGAATGCGATTGACAGCGTAGAATGAAGG
DNA 2: CCTTCATTCTACGCTGTCAATCGCATTCTATTCATGCTTTAACCTTTGACCCGTAAGCGC
Consider B11, for which the binding signal with LXRb:RXRa is 6.19 PBM z-score against 500 random probes; with RXRa, 10 PBM z-score against 500 random probes.

B12: NRC3_random_hg19_263_o1 (dsDNA)
DNA 1: GCGCTGGGTAGATCTGCCACTGAAGCCTACATGGAGGCGATTGACAGCGTAGAATGAAGG
DNA 2: CCTTCATTCTACGCTGTCAATCGCCTCCATGTAGGCTTCAGTGGCAGATCTACCCAGCGC
On to B12, for which the binding signal with VDR:RXRa was -0.87 PBM z-score against 500 random probes; with LXRb:RXRa, -1.05 PBM z-score against 500 random probes.

B13: NRC3_random_hg19_373_o1 (dsDNA)
DNA 1: GCTGCCACAGAGGATACTGTGACGTTATGCATCACTGCGATTGACAGCGTAGAATGAAGG
DNA 2: CCTTCATTCTACGCTGTCAATCGCAGTGATGCATAACGTCACAGTATCCTCTGTGGCAGC
Regarding B13, the values for the binding signal in the data set with VDR:RXRa and with LXRb:RXRa were -0.23 PBM z-score against 500 random probes and -0.59 PBM z-score against 500 random probes, respectively.

B14: NRC3_random_hg19_183_o1 (dsDNA)
DNA 1: GCGAGGACAGAGTAGATCAACCTTTCCTACCTCTAAGCGATTGACAGCGTAGAATGAAGG
DNA 2: CCTTCATTCTACGCTGTCAATCGCTTAGAGGTAGGAAAGGTTGATCTACTCTGTCCTCGC
Take B14: the binding signal with VDR:RXRa is 0.02 PBM z-score against 500 random probes; with LXRb:RXRa it was -0.11 PBM z-score against 500 random probes.

B15: NRC3_random_hg19_83_o1 (dsDNA)
DNA 1: GCGCTGTACATGATGTGGCCTCCCAGCCCAGGATCTGCGATTGACAGCGTAGAATGAAGG
DNA 2: CCTTCATTCTACGCTGTCAATCGCAGATCCTGGGCTGGGAGGCCACATCATGTACAGCGC
With B15, the binding signal in the data set with VDR:RXRa is -0.48 PBM z-score against 500 random probes; in the data set with LXRb:RXRa, -0.83 PBM z-score against 500 random probes; in the data set with PPARa:RXRa, -0.53 PBM z-score against 500 random probes.

B16: NRC3_random_hg19_480_o1 (dsDNA)
DNA 1: GCGAGAATGGTCAGTACATTCAACCATGAATTCAAGGCGATTGACAGCGTAGAATGAAGG
DNA 2: CCTTCATTCTACGCTGTCAATCGCCTTGAATTCATGGTTGAATGTACTGACCATTCTCGC
Regarding B16, the binding signal with VDR:RXRa is 0.03 PBM z-score against 500 random probes; in the data set with LXRb:RXRa, -0.32 PBM z-score against 500 random probes.

B17: NRC3_random_hg19_43_o1 (dsDNA)
DNA 1: GCAGGACCTCTTCAAGGAGAACTACAAACCACTGCTGCGATTGACAGCGTAGAATGAAGG
DNA 2: CCTTCATTCTACGCTGTCAATCGCAGCAGTGGTTTGTAGTTCTCCTTGAAGAGGTCCTGC
Regarding B17, the binding signal was -0.03 PBM z-score against 500 random probes with LXRb:RXRa, -0.17 PBM z-score against 500 random probes with PPARa:RXRa and -0.5 PBM z-score against 500 random probes with RARb:RXRa.

B18: NRC3_random_hg19_348_o1 (dsDNA)
DNA 1: GCGGAGCAGTCTGCTTTCACGCAGCCTGCTGGGCACGCGATTGACAGCGTAGAATGAAGG
DNA 2: CCTTCATTCTACGCTGTCAATCGCGTGCCCAGCAGGCTGCGTGAAAGCAGACTGCTCCGC
As to B18, the binding signal in the data set with LXRb:RXRa was -1.82 PBM z-score against 500 random probes; with RARb:RXRa, -2.02 PBM z-score against 500 random probes.

B19: NRC3_random_hg19_18_o1 (dsDNA)
DNA 1: GCATACACTTCTGGAGGCCAGAGGTCTGAAATCAAGGCGATTGACAGCGTAGAATGAAGG
DNA 2: CCTTCATTCTACGCTGTCAATCGCCTTGATTTCAGACCTCTGGCCTCCAGAAGTGTATGC
On to B19, for which the results for the binding signal with LXRb:RXRa and in the data set with RARb:RXRa were -0.22 PBM z-score against 500 random probes and 0.42 PBM z-score against 500 random probes, respectively.

B20: NRC3_wobSeed86_DR3_o1 (dsDNA)
DNA 1: GCGCTGCTAGGTCAGGTTGGTCAGCTAACGGGTACGGCGATTGACAGCGTAGAATGAAGG
DNA 2: CCTTCATTCTACGCTGTCAATCGCCGTACCCGTTAGCTGACCAACCTGACCTAGCAGCGC
As to B20, the binding signal with VDR:RXRa was 0.5 PBM z-score against 500 random probes; with LXRb:RXRa, 0.46 PBM z-score against 500 random probes.
